Results on one molecule are retold here after patent US20230416394A1 (ELPISCIENCE SUZHOU BIOPHARMA, published 2023).

Experiment [1] concerns the target T1, mouse CD39 (mouse, UniProt P55772 1-510).
T1 construct: whole, on cells; also called mCD39; CHOK1-mCD39
T1 sequence (looked up): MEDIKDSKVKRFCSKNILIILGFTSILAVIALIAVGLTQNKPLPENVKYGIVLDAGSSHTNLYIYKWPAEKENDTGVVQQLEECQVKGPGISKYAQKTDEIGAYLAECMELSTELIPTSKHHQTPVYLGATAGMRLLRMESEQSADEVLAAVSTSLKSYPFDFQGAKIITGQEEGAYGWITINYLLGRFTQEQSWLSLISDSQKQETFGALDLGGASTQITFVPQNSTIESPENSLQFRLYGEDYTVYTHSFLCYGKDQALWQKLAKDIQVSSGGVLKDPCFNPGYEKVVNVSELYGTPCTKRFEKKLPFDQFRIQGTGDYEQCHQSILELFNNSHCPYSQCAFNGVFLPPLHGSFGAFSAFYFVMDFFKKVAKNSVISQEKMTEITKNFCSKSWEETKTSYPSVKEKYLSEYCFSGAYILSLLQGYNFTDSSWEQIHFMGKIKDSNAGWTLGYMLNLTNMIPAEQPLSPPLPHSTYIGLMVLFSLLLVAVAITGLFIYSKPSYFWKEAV
The experiment in a line: FACS, CHOK1-mCD39 cells. The text has this: FACS were used to determine binding of the antibodies to cell lines expressing CD39 naturally (SK-MEL-28) or recombinantly (CHOK1-hCD39, CHOK1-cynoCD39, and CHOK1-mCD39), or with cells lacking CD39 expression (CHOK1-blank) as a negative control.
CHOK1-hCD39, CHOK1-cCD39, CHOK1-mCD39 and CHOK1-blank cells were maintained in culture medium according to ATCC procedure. Cells were collected and re-suspended in blocking buffer at a density of 3×10⁶ cells/ml. […] The plates were washed with FACS buffer, and cells were re-suspended in 100 μL/well of PBS. Cells were then analyzed with FACSVerse™ and mean fluorescence intensity were determined. Full binding curves were generated on the CD39 expressing cells by testing a range of antibody concentrations. Apparent affinity was determined for each antibody using Prism software.

The target in experiment [2] is T2, KW27-6 (human, UniProt P49961 1-510).
T2 construct: on transfected HEK-293F cells; also called human CD39 mutant KW27-6; not shown: C-terminal EGFP (vector pCMV3-GFPSpark) and any linker to it
T2 sequence: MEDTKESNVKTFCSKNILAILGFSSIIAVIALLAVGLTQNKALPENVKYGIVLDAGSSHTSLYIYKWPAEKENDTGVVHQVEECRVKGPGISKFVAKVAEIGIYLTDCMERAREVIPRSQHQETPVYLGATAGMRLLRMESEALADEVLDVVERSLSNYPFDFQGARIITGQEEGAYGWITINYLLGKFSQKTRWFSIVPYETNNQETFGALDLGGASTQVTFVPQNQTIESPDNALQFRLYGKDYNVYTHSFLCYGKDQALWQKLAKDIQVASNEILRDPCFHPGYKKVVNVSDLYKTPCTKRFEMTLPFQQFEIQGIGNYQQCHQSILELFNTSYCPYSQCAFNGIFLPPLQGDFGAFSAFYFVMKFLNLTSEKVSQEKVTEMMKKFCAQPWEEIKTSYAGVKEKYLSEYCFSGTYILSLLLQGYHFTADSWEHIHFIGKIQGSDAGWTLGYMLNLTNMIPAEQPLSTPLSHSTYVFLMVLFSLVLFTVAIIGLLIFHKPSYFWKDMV
The experiment in a line: FACS, HEK293F cells expressing mutant-EGFP. As to the method:
Briefly, the human CD39 mutants were generated by gene synthesis and then cloned into an expression vector pCMV3-GFPSpark. The vectors containing the validated mutated sequences were prepared and transfected into HEK293F cells. Three days post transfection, the cells were collected to testing EGFP for transgene expression. A range of dosages of antibodies (start from 100 nM, 3-folds dilution, 11 points) were tested on the 20 generated mutants and stained by AlexFluor647 labelled anti-hIgG by FACS. Antibody binding was descripted as relative binding which is derived from AlexFluor647 intensity divided by GFP intensity.
On the technique in general: In flow cytometry, cells or beads pass a laser one at a time.

B1: 9-8B (antibody, V domains shown)
VH: QIQLVQSGPELKKPGETVKISCKASGYTFTHYGMNWVKQAPGKGLKWMGWINTYTGELTYADDFKGRFAFSLETSASTAYLQINNLKNEDTATYFCARRAYYRYDYVMDYWGQGTSVTVSS
VL: DIVMTQSQKFMSTSVGDRVSVTCKASHNVGTNVAWYQQKPGQSPKALIYSASYRYSGVPGRFTGSGSGTDFTLTISNVQSEDLAEYFCHQYNNYPYTFGGGTKLEIK
notes: also called Antibody 9-8B
In the case of B1, the binding result in experiment [1] is on record as “no binding (tested: 30 µg/ml)”; in experiment [2] it was “no binding (tested: 100 nM)”.
